Reference: US20200216522A1 (DENALI THERAPEUTICS, published 2020)

Key:
[1] = target: T1, full-length human Tau (Tau441; 2N4R), recombinant (human, UniProt P10636 1-758); assay: SPR Biacore, IgG captured, r-Tau injected
T1 construct: made in E. coli, His6-Smt3 tag removed; biotinylated through amines for Octet and phage work; also called r-Tau; recombinant Tau
Procedure: The affinity of chimeric IgG antibodies 1C7, 1A1, 1A5, 1D10, and 1G7 for recombinant Tau was determined by surface plasmon resonance using a Biacore™ T200 instrument. Biacore™ Series S CM5 sensor chips were immobilized with monoclonal mouse anti-human IgG (Fc) antibody (human antibody capture kit from GE Healthcare). 1 μg/mL of antibody was captured for 1 minute on each flow cell and serial 3-fold dilutions of recombinant Tau were injected at a flow rate of […]. Each sample was analyzed with a 3-minute association and a 10-minute dissociation. After each injection the chip was regenerated using 3M MgCl₂. Binding response was corrected by subtracting the RU from a flow cell capturing an irrelevant IgG at similar density. A 1:1 Languir model of simultaneous fitting of kₒₙ and koff was used for kinetics analysis.

[2] = target: T1, full-length human Tau (Tau441; 2N4R), …; assay: Octet binning on biotin-r-Tau; competitor 1D10
Procedure: (§1) Epitope binning assays were performed using a FortéBio® Octet® RED384 instrument using FortéBio® Streptavidin biosensors. Biotinylated recombinant Tau was diluted to a concentration of 2 μg/mL in kinetic buffer (obtained from FortéBio®) and captured onto individual biosensors for 1 minute. A baseline was then established for 1 minute in kinetic buffer. The loaded biosensors were dipped into 10 μg/mL of the first chimeric IgG antibody until signal saturation, followed by dipping into 1 μg/mL of a second antibody. The binding for the second antibody was normalized to its total binding in the absence of the first antibody.

[3] = target: T1, full-length human Tau (Tau441; 2N4R), …; assay: Octet binning on biotin-r-Tau; competitor 1A5
Procedure: as §1

Peptide_073 = target: T2, Peptide_073 (human); assay: peptide array
T2 peptide: THVPGGGNKKIETHK
Procedure: (§2) Chimeric IgG antibodies were diluted to a concentration of 5 μg/mL in 3% bovine serum albumin in Tris-buffered saline (10 mM Tris, pH 7.5, 150 mM NaCl) supplemented with 0.05% Tween®20 (3% BSA-TBST). Diluted antibodies were allowed to bind to peptides printed onto slides for 2 hours at room temperature as described in the PepStar™ user manual (JPT Technologies). Following extensive washing (5×5 minutes with TBST), slides were incubated with secondary antibodies goat anti-human IgG, Alexa Fluor 568 conjugate, 1 μg/mL in 3% BSA-TBST) for 1 hour at room temperature. After extensive washing, (5×5 minutes with TBST, then 5×5 minutes with ultrapure water), slides were dried overnight and imaged using an Opera Phenix™ system in the 568 nm channel. Images were aligned to peptide array definition files using Galviewer software obtained from JPT Technologies and ImageJ software with control human IgG serving as landmarks.
(§3) Full-length human Tau (encoded by the microtubule-associated protein Tau isoform 2 gene (MAPT), amino acid sequence NCBI Reference Sequence No. NP_005901.2, SEQ ID NO: 1, variant designation “2N4R”) was divided into 15 amino acid peptides, offset by 5 amino acids (overlapping by 10 amino acids). Peptides were synthesized and covalently attached to silica slides in triplicate with a spot size of 0.5 mm (obtained from JPT Technologies, Berlin, Germany). Antibodies muIgG were diluted to a concentration of 30 μg/mL in 3% bovine serum albumin in Tris-buffered saline (10 mM Tris, pH 7.5, 150 mM NaCl) supplemented with 0.05% Tween® 20 (3% BSA-TBST). Diluted antibodies were allowed to bind to peptides printed onto slides for 2 hours at room temperature as described in the Pepstar™ user manual (JPT Technologies). Following extensive washing (5×5 min TBST), slides were incubated with secondary antibodies (donkey anti-mouse IgG, Alexafluor 647 conjugate, 5 μg/mL in 3% BSA-TBST) for 1 hour at room temperature. After extensive washing, (5×5 minutes TBST, 5×5 minutes ultrapure water), slides were dried under a stream of nitrogen and imaged on the Opera Phenix in the 647 nm channel. Images were aligned to peptide array definition file using Galviewer software obtained from JPT Technologies and ImageJ software with control mouse IgG serving as landmarks.

Peptide_081 = target: T3, Peptide_081 (human); assay: peptide array
T3 peptide: GDTSPRHLSNVSSTG
Procedure: as §2, §3

Peptide_045 = target: T4, Peptide_045 (human); assay: peptide array
T4 peptide: REPKKVAVVRTPPKS
Procedure: as §2, §3

Peptide_065 = target: T5, Peptide_065 (human); assay: peptide array
T5 peptide: KCGSLGNIHHKPGGG
Procedure: as §2, §3

Peptide_017 = target: T6, Peptide_017 (human); assay: peptide array
T6 peptide: DEGAPGKQAAAQPHT
Procedure: as §2, §3

Peptide_050 = target: T7, Peptide_050 (human); assay: peptide array
T7 peptide: APVPMPDLKNVKSKI
Procedure: as §2, §3

Peptide_062 = target: T8, Peptide_062 (human); assay: peptide array
T8 peptide: VQIVYKPVDLSKVTS
Procedure: as §2, §3

Peptide_024 = target: T9, Peptide_024 (human); assay: peptide array
T9 peptide: DEAAGHVTQARMVSK
Procedure: as §2, §3

Peptide_001 = target: T10, Peptide_001 (human); assay: peptide array
T10 peptide: MAEPRQEFEVMEDHA
Procedure: as §2, §3

Peptide_068 = target: T11, Peptide_068 (human); assay: peptide array
T11 peptide: QVEVKSEKLDFKDRV
Procedure: as §2, §3

Peptide_026 = target: T12, Peptide_026 (human); assay: peptide array
T12 peptide: RMVSKSKDGTGSDDK
Procedure: as §2, §3

Peptide_057 = target: T13, Peptide_057 (human); assay: peptide array
T13 peptide: KLDLSNVQSKCGSKD
Procedure: as §2, §3

Peptide_011 = target: T14, Peptide_011 (human); assay: peptide array
T14 peptide: PTEDGSEEPGSETSD
Procedure: as §2, §3

Peptide_071 = target: T15, Peptide_071 (human); assay: peptide array
T15 peptide: QSKIGSLDNITHVPG
Procedure: as §2, §3

Peptide_013 = target: T16, Peptide_013 (human); assay: peptide array
T16 peptide: SETSDAKSTPTAEDV
Procedure: as §2, §3

Peptide_046 = target: T17, Peptide_046 (human); assay: peptide array
T17 peptide: VAVVRTPPKSPSSAK
Procedure: as §2, §3

Peptide_019 = target: T18, Peptide_019 (human); assay: peptide array
T18 peptide: AQPHTEIPEGTTAEE
Procedure: as §2, §3

Peptide_005 = target: T19, Peptide_005 (human); assay: peptide array
T19 peptide: GDRKDQGGYTMHQDQ
Procedure: as §2, §3

Peptide_030 = target: T20, Peptide_030 (human); assay: peptide array
T20 peptide: DGKTKIATPRGAAPP
Procedure: as §2, §3

Peptide_049 = target: T21, Peptide_049 (human); assay: peptide array
T21 peptide: SRLQTAPVPMPDLKN
Procedure: as §2, §3

T1 sequence (P10636 other isoform, or with tags, fused parts or gaps limits assumed): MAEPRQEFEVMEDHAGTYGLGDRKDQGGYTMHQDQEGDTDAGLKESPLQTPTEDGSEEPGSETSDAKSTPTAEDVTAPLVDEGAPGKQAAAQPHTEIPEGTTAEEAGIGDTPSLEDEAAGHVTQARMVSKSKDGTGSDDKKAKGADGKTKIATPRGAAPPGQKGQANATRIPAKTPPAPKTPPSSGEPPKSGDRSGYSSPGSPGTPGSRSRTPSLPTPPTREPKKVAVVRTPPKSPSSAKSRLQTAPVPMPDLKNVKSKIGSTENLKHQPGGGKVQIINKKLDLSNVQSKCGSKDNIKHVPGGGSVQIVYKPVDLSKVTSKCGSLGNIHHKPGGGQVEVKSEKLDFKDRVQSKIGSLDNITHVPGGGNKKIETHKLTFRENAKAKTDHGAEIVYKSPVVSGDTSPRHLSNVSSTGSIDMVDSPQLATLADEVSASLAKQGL

B1: chimeric IgG clone 1D10 (antibody, V domains shown)
VH: EVQLQQSGAELVRPGASVKLSCTASGFNIKDSLMHWMKQRPEQGLEWIGWIDPEDGETKYAPKFQDKATLTADTSSNAAYLQLSSLTSEDTAIYYCVRGDWDGGYWGQGTTLTVSS
VL: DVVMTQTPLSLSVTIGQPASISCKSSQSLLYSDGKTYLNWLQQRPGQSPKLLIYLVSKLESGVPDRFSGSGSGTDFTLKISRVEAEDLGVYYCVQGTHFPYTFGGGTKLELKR
notes: mouse-human chimeric IgG from HEK293
**Q.** B1 was tested. Which Kd [1] did it give?
**A.** 0.2 nM

**Q.** What about the “normalized binding of second antibody” value [2] of the same binder?
**A.** -0.05

**Q.** What about the “normalized binding of second antibody” value [3] of the same binder?
**A.** -0.07

**Q.** Does B1 bind (Peptide_073)?
**A.** no binding (tested: 5 ug/mL)

**Q.** Does B1 bind (Peptide_081)?
**A.** no binding (tested: 5 ug/mL)

**Q.** Does B1 bind (Peptide_045)?
**A.** no binding (tested: 5 ug/mL)

**Q.** Does B1 bind (Peptide_065)?
**A.** no binding (tested: 5 ug/mL)

**Q.** Does B1 bind (Peptide_017)?
**A.** no binding (tested: 5 ug/mL)

**Q.** Does B1 bind (Peptide_050)?
**A.** no binding (tested: 5 ug/mL)

**Q.** Does B1 bind (Peptide_062)?
**A.** no binding (tested: 5 ug/mL)

**Q.** Does B1 bind (Peptide_024)?
**A.** no binding (tested: 5 ug/mL)

**Q.** Does B1 bind (Peptide_001)?
**A.** no binding (tested: 5 ug/mL)

**Q.** Does B1 bind (Peptide_068)?
**A.** no binding (tested: 5 ug/mL)

**Q.** Does B1 bind (Peptide_026)?
**A.** no binding (tested: 5 ug/mL)

**Q.** Does B1 bind (Peptide_057)?
**A.** no binding (tested: 5 ug/mL)

**Q.** Does B1 bind (Peptide_011)?
**A.** no binding (tested: 5 ug/mL)

**Q.** Does B1 bind (Peptide_071)?
**A.** no binding (tested: 5 ug/mL)

**Q.** Does B1 bind (Peptide_013)?
**A.** no binding (tested: 5 ug/mL)

**Q.** Does B1 bind (Peptide_046)?
**A.** no binding (tested: 5 ug/mL)

**Q.** Does B1 bind (Peptide_019)?
**A.** no binding (tested: 5 ug/mL)

**Q.** Does B1 bind (Peptide_005)?
**A.** no binding (tested: 5 ug/mL)

**Q.** Does B1 bind (Peptide_030)?
**A.** no binding (tested: 5 ug/mL)

**Q.** Does B1 bind (Peptide_049)?
**A.** no binding (tested: 5 ug/mL)
